Test results: patent EP2045266A1 (INSERM (Institut National de la Santé et de la Recherche …, dated 2009)

Molecular target: T1, LexA DNA-binding domain fusion of 4 kDa pro-fragment of human cath-D (human, UniProt P0A7C2 1-202; P07339 21-64, limits assumed)
T1 construct: also called 4 kDa pro-fragment (yeast two-hybrid bait)
T1 sequence (looked up): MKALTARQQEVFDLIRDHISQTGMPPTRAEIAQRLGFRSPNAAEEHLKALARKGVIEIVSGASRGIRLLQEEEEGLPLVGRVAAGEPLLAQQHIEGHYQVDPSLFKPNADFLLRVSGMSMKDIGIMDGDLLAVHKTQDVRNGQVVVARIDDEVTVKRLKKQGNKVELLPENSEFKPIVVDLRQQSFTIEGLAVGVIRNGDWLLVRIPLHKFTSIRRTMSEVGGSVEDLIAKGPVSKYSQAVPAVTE
Experiment: yeast two-hybrid

B1: B42 activation domain fusion of LRP1β (307-479) (yeast two-hybrid clone, pYESTrp2-LRP1β (307-479)) (other, not shown: large carriers)
chain: PSGMPTCRCPTGFTGPKCTQQVCAGYCANNSTCTVNQGNQPQCRCLPGFLGDRCQYRQCSGYCENFGTCQMAADGSRQCRCTAYFEGSRCEVNKCSRCLEGACVVNKQSGDVTCNCTDGRVAPSCLTCVGHCSNGGSCTMNSKMMPECQCPPHMTGPRCEEHVFSQQQPGHIA
notes: also called the clone isolated in the screen
  binding result: no binding
